Tests used:
FcγRIIIa type V = target: T1, FcγRIIIa type V (human, UniProt P08637 17-208, limits assumed); test: SPR (Biacore), antibody captured, FcγR analyte
T1 construct: SPR analyte; allotype V158 was used here; also called FcγRIIIaV; FcγRIIIa(V)

FcγRIa = target: T2, FcγRIa (human, UniProt P12314 16-292, limits assumed); test: SPR (Biacore), antibody captured, FcγR analyte
T2 construct: SPR analyte; also called CD64

FcγRIIb [1] = target: T3, FcγRIIb (human, UniProt P31994 43-217, limits assumed); test: SPR (Biacore), antibody captured, FcγR analyte
T3 construct: SPR analyte; also called FcγIIB; CD32
T3 sequence: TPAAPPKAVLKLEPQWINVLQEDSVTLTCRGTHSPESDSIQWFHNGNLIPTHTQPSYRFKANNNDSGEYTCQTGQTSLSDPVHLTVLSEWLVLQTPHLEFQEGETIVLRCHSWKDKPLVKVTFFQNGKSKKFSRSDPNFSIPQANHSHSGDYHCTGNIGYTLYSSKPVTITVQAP

FcγRIIa type H = target: T4, FcγRIIa type H (human, UniProt P12318 36-217); test: SPR (Biacore), antibody captured, FcγR analyte
T4 construct: SPR analyte; also called FcγRIIaH
T4 sequence: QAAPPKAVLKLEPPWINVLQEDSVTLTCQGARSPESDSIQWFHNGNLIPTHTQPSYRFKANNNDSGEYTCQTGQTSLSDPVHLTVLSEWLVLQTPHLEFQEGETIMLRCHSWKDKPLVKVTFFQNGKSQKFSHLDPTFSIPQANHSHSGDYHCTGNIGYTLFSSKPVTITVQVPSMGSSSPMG

FcγRIIa type R [2] = target: T5, FcγRIIa type R (human, UniProt P12318 36-217); test: SPR (Biacore), antibody captured, FcγR analyte
T5 construct: SPR analyte; also called FcγRIIaR; FcγRIIa(R)
T5 chain: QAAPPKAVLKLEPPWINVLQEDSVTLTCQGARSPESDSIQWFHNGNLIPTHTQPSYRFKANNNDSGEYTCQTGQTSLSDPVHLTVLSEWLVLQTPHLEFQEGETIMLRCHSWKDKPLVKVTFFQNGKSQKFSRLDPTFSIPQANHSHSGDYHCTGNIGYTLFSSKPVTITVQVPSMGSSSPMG

FcγRIIa type R [3] = target: T5, FcγRIIa type R; test: ratio of SPR KDs; stronger receptor here FcγRIIaR; reference IL6R-B3/IL6R-L (FcγRIIaH)
FcγRIIb [4] = target: T3, FcγRIIb; test: ratio of SPR KDs; reference IL6R-B3/IL6R-L
FcγRIIb [5] = target: T3, FcγRIIb; test: ratio of SPR KDs: KD for FcγRIIaH over KD for FcγRIIb
Source text: (§1) Furthermore, KD(IIaR)/KD(IIb) and KD(IIaH)/KD(IIb) in the table respectively represent the value obtained by dividing the KD value of each variant for FcγRIIaR by the KD value of each variant for FcγRIIb, and the value obtained by dividing the KD value of each variant for FcγRIIaH by the KD value of each variant for FcγRIIb.

FcγRIIb [6] = target: T3, FcγRIIb; test: ratio of SPR KDs: KD for FcγRIIaR over KD for FcγRIIb
Source text: as §1

T2 sequence (P12314 16-292 limits assumed): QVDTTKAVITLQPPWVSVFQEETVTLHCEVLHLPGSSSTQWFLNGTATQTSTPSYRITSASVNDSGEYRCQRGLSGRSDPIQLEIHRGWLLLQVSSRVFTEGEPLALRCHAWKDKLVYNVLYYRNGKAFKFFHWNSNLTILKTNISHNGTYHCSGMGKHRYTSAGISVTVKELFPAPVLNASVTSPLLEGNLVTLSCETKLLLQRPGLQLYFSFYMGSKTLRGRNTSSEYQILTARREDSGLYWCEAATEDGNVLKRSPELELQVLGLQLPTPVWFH
T1 sequence (P08637 other isoform, or with tags, fused parts or gaps limits assumed): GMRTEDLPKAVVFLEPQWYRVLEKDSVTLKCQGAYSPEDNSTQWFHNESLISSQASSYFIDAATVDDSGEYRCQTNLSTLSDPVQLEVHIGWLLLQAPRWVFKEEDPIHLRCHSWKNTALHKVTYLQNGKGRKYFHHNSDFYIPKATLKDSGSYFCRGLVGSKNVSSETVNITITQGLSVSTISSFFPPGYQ

B1: IL6R-BP150/IL6R-L (antibody, human IgG1)
heavy: QVQLQESGPGLVKPSETLSLTCAVSGHSISHDHAWSWVRQPPGEGLEWIGFISYSGITNYNPSLQGRVTISRDNSKNTLYLQMNSLRAEDTAVYYCARSLARTTAMDYWGEGTLVTVSSASTKGPSVFPLAPSSKSTSGGTAALGCLVKDYFPEPVTVSWNSGALTSGVHTFPAVLQSSGLYSLSSVVTVPSSSLGTQTYICNVNHKPSNTKVDKKVEPKSCDKTHTCPPCPAPEYLGDDSVFLFPPKPKDTLMISRTPEVTCVVVDVSHEDPEVKFNWYVDGVEVHNAKTKPREEQYNSTYRVVSVLTVLHQDWLNGKEYKCKVSNAALPRPIEKTISKAKGQPREPQVYTLPPSRDELTKNQVSLTCLVKGFYPSDIAVEWESNGQPENNYKTTPPVLDSDGSFFLYSKLTVDKSRWQQGNVFSCSVMHEALHNHYTQESLSLSP
light: DIQMTQSPSSLSASVGDRVTITCRASQDISSYLNWYQQKPGKAPKLLIYYTSRLHSGVPSRFSGSGSGTDFTFTISSLQPEDIATYYCQQGNTLPYTFGQGTKVEIK
With B1 as the binder, how does the Kd (FcγRIIIa type V) read?
Its Kd is 34000 nM.

And the Kd (FcγRIa)?
The Kd was 320 nM.

What about the Kd (FcγRIIb [1]) of the same binder?
The Kd was 31 nM.

And the Kd (FcγRIIa type H)?
Its Kd is 3400 nM.

And the Kd (FcγRIIa type R [2])?
Its Kd is 550 nM.

What about the “KD of the stronger of FcγRIIaR/FcγRIIaH binding of the variant / that of the parent polypeptide” value (FcγRIIa type R [3]) of the same binder?
The value was 0.7.

What about the “KD(IIb) of the parent polypeptide/KD(IIb) of altered polypeptide” value (“KD(IIb) … of altered polypeptide” for short) (FcγRIIb [4]) of the same binder?
Its value is 99.

What about the “KD(IIaH)/KD(IIb)” value (FcγRIIb [5]) of the same binder?
The value was 109.

What about the “KD(IIaR)/KD(IIb)” value (FcγRIIb [6]) of the same binder?
The value was 17.7.

B2: IL6R-BP151/IL6R-L (antibody, human IgG1)
heavy: QVQLQESGPGLVKPSETLSLTCAVSGHSISHDHAWSWVRQPPGEGLEWIGFISYSGITNYNPSLQGRVTISRDNSKNTLYLQMNSLRAEDTAVYYCARSLARTTAMDYWGEGTLVTVSSASTKGPSVFPLAPSSKSTSGGTAALGCLVKDYFPEPVTVSWNSGALTSGVHTFPAVLQSSGLYSLSSVVTVPSSSLGTQTYICNVNHKPSNTKVDKKVEPKSCDKTHTCPPCPAPDYLGDDSVFLFPPKPKDTLMISRTPEVTCVVVDVSHEDPEVKFNWYVDGVEVHNAKTKPREEQYNSTYRVVSVLTVLHQDWLNGKEYKCKVSNAALPRPIEKTISKAKGQPREPQVYTLPPSRDELTKNQVSLTCLVKGFYPSDIAVEWESNGQPENNYKTTPPVLDSDGSFFLYSKLTVDKSRWQQGNVFSCSVMHEALHNHYTQESLSLSP
light: DIQMTQSPSSLSASVGDRVTITCRASQDISSYLNWYQQKPGKAPKLLIYYTSRLHSGVPSRFSGSGSGTDFTFTISSLQPEDIATYYCQQGNTLPYTFGQGTKVEIK
For B2, which Kd (FcγRIIIa type V) is on record?
Its Kd is 31000 nM.

What about the Kd (FcγRIa) of the same binder?
The Kd was 84 nM.

And the Kd (FcγRIIb [1])?
Its Kd is 40 nM.

What about the Kd (FcγRIIa type H) of the same binder?
Its Kd is 4700 nM.

And the Kd (FcγRIIa type R [2])?
Its Kd is 670 nM.

And the “KD of the stronger of FcγRIIaR/FcγRIIaH binding of the variant / that of the parent polypeptide” value (FcγRIIa type R [3])?
The value was 0.9.

What about the “KD(IIb) … of altered polypeptide” value (FcγRIIb [4]) of the same binder?
Its value is 77.4.

And the “KD(IIaH)/KD(IIb)” value (FcγRIIb [5])?
The value was 118.

And the “KD(IIaR)/KD(IIb)” value (FcγRIIb [6])?
The value was 16.9.

B3: IL6R-BP177/IL6R-L (antibody, human IgG1)
heavy: QVQLQESGPGLVKPSETLSLTCAVSGHSISHDHAWSWVRQPPGEGLEWIGFISYSGITNYNPSLQGRVTISRDNSKNTLYLQMNSLRAEDTAVYYCARSLARTTAMDYWGEGTLVTVSSASTKGPSVFPLAPSSKSTSGGTAALGCLVKDYFPEPVTVSWNSGALTSGVHTFPAVLQSSGLYSLSSVVTVPSSSLGTQTYICNVNHKPSNTKVDKKVEPKSCDKTHTCPPCPAPDYLGDDSVFLFPPKPKDTLMISRTPEVTCVVVDVSHEDGEVKFNWYVDGVEVHNAKTKPREEQYNSTYRVVSVLTVLHQDWLNGKEYKCKVSNDALPKPIEKTISKAKGQPREPQVYTLPPSRDELTKNQVSLTCLVKGFYPSDIAVEWESNGQPENNYKTTPPVLDSDGSFFLYSKLTVDKSRWQQGNVFSCSVMHEALHNHYTQESLSLSP
light: DIQMTQSPSSLSASVGDRVTITCRASQDISSYLNWYQQKPGKAPKLLIYYTSRLHSGVPSRFSGSGSGTDFTFTISSLQPEDIATYYCQQGNTLPYTFGQGTKVEIK
For B3, which Kd (FcγRIIIa type V) is on record?
Its Kd is 37000 nM.

What about the Kd (FcγRIa) of the same binder?
The Kd was 33 nM.

And the Kd (FcγRIIb [1])?
Its Kd is 52 nM.

And the Kd (FcγRIIa type H)?
Its Kd is 8200 nM.

What about the Kd (FcγRIIa type R [2]) of the same binder?
Its Kd is 710 nM.

And the “KD of the stronger of FcγRIIaR/FcγRIIaH binding of the variant / that of the parent polypeptide” value (FcγRIIa type R [3])?
Its value is 0.9.

And the “KD(IIb) … of altered polypeptide” value (FcγRIIb [4])?
Its value is 60.

What about the “KD(IIaH)/KD(IIb)” value (FcγRIIb [5]) of the same binder?
Its value is 159.

And the “KD(IIaR)/KD(IIb)” value (FcγRIIb [6])?
Its value is 13.8.
